# Test results as given in patent publication US20210261622A1 (Janssen / Centocor, published 2021).
# Bridge positions count the residues as written; N and C are the ends. Square brackets hold non-standard residues; d marks the D form. Trp(7-Ph) = N[C@@H](Cc1c[nH]c2c(-c3ccccc3)cccc12)C(=O)O; Trp(5-CN) = N#Cc1ccc2[nH]cc(C[C@H](N)C(=O)O)c2c1; Trp(7-Me) = Cc1cccc2c(C[C@H](N)C(=O)O)c[nH]c12; 2Nal = N[C@@H](Cc1ccc2ccccc2c1)C(=O)O; AEF = NCCOc1ccc(C[C@H](N)C(=O)O)cc1; dNMeY = CN[C@H](Cc1ccc(O)cc1)C(=O)O; 3Pal = N[C@@H](Cc1cccnc1)C(=O)O; Cit = NC(=O)NCCC[C@H](N)C(=O)O; αMeL = CC(C)C[C@](C)(N)C(=O)O; Pen = CC(C)(S)[C@H](N)C(=O)O; Trp(5-Ca) = not defined here; αMeK = C[C@](N)(CCCCN)C(=O)O; Ac5c = NC1(C(=O)O)CCCC1; Thp = NC1(C(=O)O)CCOCC1; Abu = CC[C@H](N)C(=O)O; Sar = CNCC(=O)O
# T1: interleukin-23 receptor (IL-23R) (human, UniProt Q5VWK5 24-629)
# T1 sequence (looked up): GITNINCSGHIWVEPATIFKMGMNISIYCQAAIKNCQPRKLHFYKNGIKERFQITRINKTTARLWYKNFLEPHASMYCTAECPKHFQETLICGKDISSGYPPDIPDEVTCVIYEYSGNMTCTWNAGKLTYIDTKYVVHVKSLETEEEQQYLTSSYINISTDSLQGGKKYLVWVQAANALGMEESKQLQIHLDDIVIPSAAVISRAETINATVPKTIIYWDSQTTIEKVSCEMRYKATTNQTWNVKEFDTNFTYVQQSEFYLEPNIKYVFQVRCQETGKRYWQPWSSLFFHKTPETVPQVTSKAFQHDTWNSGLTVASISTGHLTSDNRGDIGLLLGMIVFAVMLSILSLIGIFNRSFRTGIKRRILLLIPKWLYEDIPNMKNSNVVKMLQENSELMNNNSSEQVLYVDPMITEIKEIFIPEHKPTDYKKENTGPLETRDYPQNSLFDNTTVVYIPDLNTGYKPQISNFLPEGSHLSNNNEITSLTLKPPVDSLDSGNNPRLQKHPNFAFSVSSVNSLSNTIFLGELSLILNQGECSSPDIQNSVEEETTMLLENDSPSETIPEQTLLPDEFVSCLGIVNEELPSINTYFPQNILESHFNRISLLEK
# T2: human IL-23R (human, UniProt Q5VWK5 24-629)
# T2 sequence (looked up): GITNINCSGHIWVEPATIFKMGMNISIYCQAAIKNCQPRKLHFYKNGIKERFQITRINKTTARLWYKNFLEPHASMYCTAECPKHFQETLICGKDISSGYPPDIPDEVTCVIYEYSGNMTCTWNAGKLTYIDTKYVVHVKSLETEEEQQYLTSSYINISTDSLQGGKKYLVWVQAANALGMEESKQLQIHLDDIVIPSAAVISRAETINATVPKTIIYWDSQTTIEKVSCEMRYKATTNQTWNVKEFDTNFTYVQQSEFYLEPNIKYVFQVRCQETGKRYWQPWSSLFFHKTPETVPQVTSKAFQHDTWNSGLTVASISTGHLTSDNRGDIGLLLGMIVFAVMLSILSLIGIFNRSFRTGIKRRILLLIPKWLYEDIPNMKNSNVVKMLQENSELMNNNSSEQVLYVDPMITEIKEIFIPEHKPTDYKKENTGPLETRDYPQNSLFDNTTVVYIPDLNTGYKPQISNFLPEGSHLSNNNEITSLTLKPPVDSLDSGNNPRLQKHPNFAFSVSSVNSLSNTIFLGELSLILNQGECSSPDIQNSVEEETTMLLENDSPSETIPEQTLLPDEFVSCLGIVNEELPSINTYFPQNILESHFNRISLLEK
# Target: T1, interleukin-23 receptor (IL-23R)
# Assay: cell-based or functional assay
row,"IC50, NK Cell Assay (IFNγ in supernatant of human NK cells stimulated with IL-23 and IL-18) [nM]",Binder
1,0.04,Ac-[Pen]NT[Trp(7-Me)]K(Ac)[Pen][AEF][2Nal][Thp]EN[3Pal][dNMeY]-NH2 (disulfide 1-6; SMILES CC(=O)NCCCC[C@@H]1NC(=O)[C@H](Cc2c[nH]c3c(C)cccc23)NC(=O)[C@H]([C@@H](C)O)NC(=O)[C@H](CC(N)=O)NC(=O)[C@@H](NC(C)=O)C(C)(C)SSC(C)(C)[C@@H](C(=O)N[C@@H](Cc2ccc(OCCN)cc2)C(=O)N[C@@H](Cc2ccc3ccccc3c2)C(=O)NC2(C(=O)N[C@@H](CCC(=O)O)C(=O)N[C@@H](CC(N)=O)C(=O)N[C@@H](Cc3cccnc3)C(=O)N(C)[C@H](Cc3ccc(O)cc3)C(N)=O)CCOCC2)NC1=O) [Peptide No. 121 (SEQ ID NO: 121)]

# Target: T2, human IL-23R
# Assay: cell-based or functional assay
Binder,pStat3 HTRF IC50 [nM],PBMC pSTAT3 IC50 [nM]
Ac-[Pen]NT[Trp(7-Ph)]K(Ac)[Pen][AEF][2Nal][Thp]K(Ac)N[3Pal][Sar]-NH2 (disulfide 1-6; SMILES CC(=O)NCCCC[C@@H]1NC(=O)[C@H](Cc2c[nH]c3c(-c4ccccc4)cccc23)NC(=O)[C@H]([C@@H](C)O)NC(=O)[C@H](CC(N)=O)NC(=O)[C@@H](NC(C)=O)C(C)(C)SSC(C)(C)[C@@H](C(=O)N[C@@H](Cc2ccc(OCCN)cc2)C(=O)N[C@@H](Cc2ccc3ccccc3c2)C(=O)NC2(C(=O)N[C@@H](CCCCNC(C)=O)C(=O)N[C@@H](CC(N)=O)C(=O)N[C@@H](Cc3cccnc3)C(=O)N(C)CC(N)=O)CCOCC2)NC1=O) [Peptide No. 117],0.02,
RXQTWQCFXXENNY (Ac-[(D)Arg]-[Abu]-Q-T-W-Q-[Cys]-Phe[4-(2-aminoethoxy)]-[2-Nal]-[THP]-E-N-N-[(D)NMeTyr]-NH2; Abu-Cys thioether) [Peptide No. 8],,1
Ac-[dR][Pen]NT[Trp(7-Me)]K(Ac)[Pen][AEF][2Nal][Thp]ENN[dNMeY]-NH2 (disulfide 2-7) [Peptide No. 88],,> 2000
Ac-[Abu]QT[Trp(7-Me)]K(Ac)C[AEF][2Nal][αMeK]K(Ac)N[dK][Sar]-NH2 (thioether 1-6) [Peptide No. 17],,0.791
Ac-[Pen]NT[Trp(7-Me)][Cit][Pen][AEF][2Nal][αMeL]K(Ac)N[dH]-NH2 (disulfide 1-6; SMILES CC(=O)NCCCC[C@H](NC(=O)[C@](C)(CC(C)C)NC(=O)[C@H](Cc1ccc2ccccc2c1)NC(=O)[C@H](Cc1ccc(OCCN)cc1)NC(=O)[C@H]1NC(=O)[C@H](CCCNC(N)=O)NC(=O)[C@H](Cc2c[nH]c3c(C)cccc23)NC(=O)[C@H]([C@@H](C)O)NC(=O)[C@H](CC(N)=O)NC(=O)[C@@H](NC(C)=O)C(C)(C)SSC1(C)C)C(=O)N[C@@H](CC(N)=O)C(=O)N[C@H](Cc1c[nH]cn1)C(N)=O) [Peptide No. 85],,3
Ac-[Abu]QT[Trp(7-Ph)]K(Ac)C[AEF][2Nal][αMeK]K(Ac)N[dK][Sar]-NH2 (thioether 1-6) [Peptide No. 18],,1.1

# The remaining lines, values ahead:
pStat3 HTRF IC50 [nM],PBMC pSTAT3 IC50 [nM],Binder
> 10,,Ac-[Pen]NT[Trp(5-CN)]K(Ac)[Pen][AEF][2Nal][Thp]EN[3Pal][Sar]-NH2 (disulfide 1-6 (inferred)) [Peptide No. 154]
> 10,,Ac-[Pen]NT[Trp(5-Ca)]K(Ac)[Pen][AEF][2Nal][Thp]EN[3Pal][Sar]-NH2 (disulfide 1-6; reading uncertain; also: printed as Ac-[Pen]-N-T-[W(5-Ca)]-[Lys(Ac)]-[Pen]-Phe[4-(2-aminoethoxy)]-[2-Nal]-[THP]-E-N-[3Pal]-[Sarc]-NH2; Pen-Pen disulfide) [Peptide No. 160]
0.09,,Ac-[Pen]NT[Trp(7-(3-carboxamidophenyl))]K(Ac)[Pen][AEF][2Nal][Thp]EN[3Pal][Sar]-NH2 (disulfide 1-6 (inferred)) [Peptide No. 142]
> 10,,Ac-[Pen]NT[Trp(5-Ph)]K(Ac)[Pen][AEF][2Nal][Thp]EN[3Pal][Sar]-NH2 (disulfide 1-6 (inferred)) [Peptide No. 150]

# Target: T2, human IL-23R
# Assay: cell-based or functional assay
# Remark: another data set of the same source
row,PBMC pSTAT3 IC50 [nM],Binder
1,0.01,Ac-[dR][Pen]NT[Trp(7-Me)]K(Ac)[Pen][AEF][2Nal][Ac5c]EN[3Pal][Sar]-NH2 (disulfide 2-7; SMILES CC(=O)NCCCC[C@@H]1NC(=O)[C@H](Cc2c[nH]c3c(C)cccc23)NC(=O)[C@H]([C@@H](C)O)NC(=O)[C@H](CC(N)=O)NC(=O)[C@@H](NC(=O)[C@@H](CCCNC(=N)N)NC(C)=O)C(C)(C)SSC(C)(C)[C@@H](C(=O)N[C@@H](Cc2ccc(OCCN)cc2)C(=O)N[C@@H](Cc2ccc3ccccc3c2)C(=O)NC2(C(=O)N[C@@H](CCC(=O)O)C(=O)N[C@@H](CC(N)=O)C(=O)N[C@@H](Cc3cccnc3)C(=O)N(C)CC(N)=O)CCCC2)NC1=O) [Peptide No. 235]
